# Results published in PMC3507626, “The Crystal Structure of the Intact E. coli RelBE Toxin-Antitoxin Complex Provides the Structural Basis for Conditional Cooperativity” (Structure(London, England:1993), 2012).
# T1: Escherichia coli RelE R81A (untagged, full-length toxin) (Escherichia coli, UniProt P0C077 1-95, R81A)
# T1 construct: RelE toxin of the relBE locus, Escherichia coli, 95 residues, R81A active-site mutant; also called R81A active-site mutant
# T1 sequence (looked up): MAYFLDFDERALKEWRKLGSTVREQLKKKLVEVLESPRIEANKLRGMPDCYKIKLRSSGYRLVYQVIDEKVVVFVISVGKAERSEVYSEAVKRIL
# B1: Escherichia coli RelB (untagged, intact antitoxin) (natural protein, UniProt P0C079 1-79, looked up)
# chain: MGSINLRIDDELKARSYAALEKMGVTPSEALRLMLEYIADNERLPFKQTLLSDEDAELVEIVKERLRNPKPVRVTLDEL
# notes: RelB antitoxin of the relBE locus, Escherichia coli, 79 residues (residues 2-79 of 79 seen in the structure); Untagged; Details of purification are in the Supplemental Experimental Procedures; source: E. coli, plasmid pSC2524HE encoding His-tagged RelE R81A and untagged RelB; purified by denaturation, ion exchange, gel filtration
# Columns and labels:
# [1] = target: T1, Escherichia coli RelE R81A (untagged, …); test: crystal structure; RelB2E2 reconstituted from purified RelB and RelE R81A; crystals at 4°C, 1.6-2.0 M ammonium sulfate, 0.1 M Na acetate pH 4.6; space group P6(1)22; 2.8 Å; conditions: both partners purified
# [2] = target: the molecule itself; test: not stated; isolated RelB and isolated RelE in solution; data not shown
binder,measurement,setting,value
B1,binding result,[1],binds
same,stoichiometry N,[2],4
